According to PMC2064543:

Biological target: adenomatous polyposis coli (APC), endogenous in Xenopus egg extracts (Xenopus laevis (endogenous in egg extracts)) (UniProt P70039)
Experiment: co-IP

Chain of UniProt P70039 (P70039 whole entry): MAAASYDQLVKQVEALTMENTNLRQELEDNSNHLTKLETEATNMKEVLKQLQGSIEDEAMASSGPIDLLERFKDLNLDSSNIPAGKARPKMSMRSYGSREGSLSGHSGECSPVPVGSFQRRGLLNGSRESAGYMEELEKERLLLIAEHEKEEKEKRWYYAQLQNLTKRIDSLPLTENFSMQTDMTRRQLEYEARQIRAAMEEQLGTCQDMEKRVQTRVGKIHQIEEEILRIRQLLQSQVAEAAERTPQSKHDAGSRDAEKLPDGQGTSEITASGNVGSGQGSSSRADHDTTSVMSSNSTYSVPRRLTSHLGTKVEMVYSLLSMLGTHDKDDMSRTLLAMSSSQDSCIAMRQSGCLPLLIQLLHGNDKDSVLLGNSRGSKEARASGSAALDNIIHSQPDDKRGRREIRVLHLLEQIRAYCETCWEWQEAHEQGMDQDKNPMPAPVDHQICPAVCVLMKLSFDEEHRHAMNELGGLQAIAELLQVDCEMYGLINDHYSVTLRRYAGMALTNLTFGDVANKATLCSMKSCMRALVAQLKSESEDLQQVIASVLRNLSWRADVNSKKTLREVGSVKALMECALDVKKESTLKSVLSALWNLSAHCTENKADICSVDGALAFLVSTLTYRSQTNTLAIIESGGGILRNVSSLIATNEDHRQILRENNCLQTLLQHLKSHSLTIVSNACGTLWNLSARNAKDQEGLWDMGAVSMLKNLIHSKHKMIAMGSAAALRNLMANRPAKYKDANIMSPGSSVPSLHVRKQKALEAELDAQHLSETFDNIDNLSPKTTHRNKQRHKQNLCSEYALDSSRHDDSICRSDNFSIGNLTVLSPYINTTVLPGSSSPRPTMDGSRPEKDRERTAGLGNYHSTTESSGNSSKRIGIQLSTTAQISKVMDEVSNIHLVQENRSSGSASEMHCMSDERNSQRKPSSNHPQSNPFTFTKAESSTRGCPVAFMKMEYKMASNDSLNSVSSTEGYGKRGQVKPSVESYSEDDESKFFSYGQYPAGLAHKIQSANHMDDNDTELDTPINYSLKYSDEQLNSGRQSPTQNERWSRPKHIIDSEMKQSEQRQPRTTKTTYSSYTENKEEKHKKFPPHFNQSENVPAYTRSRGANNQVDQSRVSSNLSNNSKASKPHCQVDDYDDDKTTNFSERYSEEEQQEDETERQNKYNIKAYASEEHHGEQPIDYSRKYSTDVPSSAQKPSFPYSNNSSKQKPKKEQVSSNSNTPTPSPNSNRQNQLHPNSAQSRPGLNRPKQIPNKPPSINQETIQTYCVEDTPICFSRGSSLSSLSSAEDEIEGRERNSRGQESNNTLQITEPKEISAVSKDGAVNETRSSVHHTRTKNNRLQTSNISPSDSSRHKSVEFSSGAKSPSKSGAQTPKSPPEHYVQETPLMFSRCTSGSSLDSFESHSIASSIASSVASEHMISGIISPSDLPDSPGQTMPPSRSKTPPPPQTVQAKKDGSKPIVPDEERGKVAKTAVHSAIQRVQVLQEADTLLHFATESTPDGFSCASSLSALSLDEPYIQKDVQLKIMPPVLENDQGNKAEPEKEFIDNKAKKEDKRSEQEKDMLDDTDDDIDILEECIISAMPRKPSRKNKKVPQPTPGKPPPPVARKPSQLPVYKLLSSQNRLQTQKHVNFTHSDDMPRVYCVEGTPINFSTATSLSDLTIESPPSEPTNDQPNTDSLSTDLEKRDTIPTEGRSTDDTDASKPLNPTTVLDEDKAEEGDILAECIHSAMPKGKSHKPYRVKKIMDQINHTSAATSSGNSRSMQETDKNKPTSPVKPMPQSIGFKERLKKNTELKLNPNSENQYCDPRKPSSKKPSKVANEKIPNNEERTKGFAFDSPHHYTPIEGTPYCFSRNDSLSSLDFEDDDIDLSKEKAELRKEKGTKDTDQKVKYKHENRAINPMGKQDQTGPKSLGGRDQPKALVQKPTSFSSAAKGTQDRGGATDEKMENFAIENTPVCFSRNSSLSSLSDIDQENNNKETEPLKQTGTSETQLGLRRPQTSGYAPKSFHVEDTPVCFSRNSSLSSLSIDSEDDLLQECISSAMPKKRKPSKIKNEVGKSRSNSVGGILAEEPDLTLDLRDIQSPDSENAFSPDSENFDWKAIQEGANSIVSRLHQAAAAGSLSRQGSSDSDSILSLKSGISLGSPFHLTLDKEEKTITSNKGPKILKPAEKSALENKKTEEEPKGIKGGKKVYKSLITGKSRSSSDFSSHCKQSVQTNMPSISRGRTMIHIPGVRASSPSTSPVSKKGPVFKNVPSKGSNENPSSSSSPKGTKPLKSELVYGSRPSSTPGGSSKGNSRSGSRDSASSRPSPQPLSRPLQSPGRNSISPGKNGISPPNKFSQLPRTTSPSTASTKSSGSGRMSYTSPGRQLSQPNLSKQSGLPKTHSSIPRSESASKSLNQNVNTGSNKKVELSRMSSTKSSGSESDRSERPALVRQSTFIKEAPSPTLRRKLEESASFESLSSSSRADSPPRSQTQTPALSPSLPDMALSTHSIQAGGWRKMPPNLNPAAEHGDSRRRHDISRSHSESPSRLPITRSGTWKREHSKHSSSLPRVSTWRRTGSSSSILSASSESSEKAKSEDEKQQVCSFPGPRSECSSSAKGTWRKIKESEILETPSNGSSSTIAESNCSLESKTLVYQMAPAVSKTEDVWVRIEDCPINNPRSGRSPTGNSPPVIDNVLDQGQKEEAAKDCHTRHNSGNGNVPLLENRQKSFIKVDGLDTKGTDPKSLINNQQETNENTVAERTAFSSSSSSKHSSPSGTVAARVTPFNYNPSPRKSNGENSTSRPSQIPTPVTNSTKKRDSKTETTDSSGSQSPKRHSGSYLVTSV

percent less coimmunoprecipitated with APC than WT-BubR1: 40%
Substance: GST–KD-BubR1 (recombinant Xenopus kinase-dead BubR1) (from UniProt B7ZQ97 1-1041) (natural protein)
